Source: patent publication US20250136702A1 (NONA BIOSCIENCES SUZHOU, published 2025)
Positions count from the first letter of the chain named.

T1: human LIFR expressed on the surface of 293T cells (human, UniProt P42702 45-1097)
T1 construct: whole, on cells; also called HEK293T-huLIFR; huLIFR
T1 sequence (looked up): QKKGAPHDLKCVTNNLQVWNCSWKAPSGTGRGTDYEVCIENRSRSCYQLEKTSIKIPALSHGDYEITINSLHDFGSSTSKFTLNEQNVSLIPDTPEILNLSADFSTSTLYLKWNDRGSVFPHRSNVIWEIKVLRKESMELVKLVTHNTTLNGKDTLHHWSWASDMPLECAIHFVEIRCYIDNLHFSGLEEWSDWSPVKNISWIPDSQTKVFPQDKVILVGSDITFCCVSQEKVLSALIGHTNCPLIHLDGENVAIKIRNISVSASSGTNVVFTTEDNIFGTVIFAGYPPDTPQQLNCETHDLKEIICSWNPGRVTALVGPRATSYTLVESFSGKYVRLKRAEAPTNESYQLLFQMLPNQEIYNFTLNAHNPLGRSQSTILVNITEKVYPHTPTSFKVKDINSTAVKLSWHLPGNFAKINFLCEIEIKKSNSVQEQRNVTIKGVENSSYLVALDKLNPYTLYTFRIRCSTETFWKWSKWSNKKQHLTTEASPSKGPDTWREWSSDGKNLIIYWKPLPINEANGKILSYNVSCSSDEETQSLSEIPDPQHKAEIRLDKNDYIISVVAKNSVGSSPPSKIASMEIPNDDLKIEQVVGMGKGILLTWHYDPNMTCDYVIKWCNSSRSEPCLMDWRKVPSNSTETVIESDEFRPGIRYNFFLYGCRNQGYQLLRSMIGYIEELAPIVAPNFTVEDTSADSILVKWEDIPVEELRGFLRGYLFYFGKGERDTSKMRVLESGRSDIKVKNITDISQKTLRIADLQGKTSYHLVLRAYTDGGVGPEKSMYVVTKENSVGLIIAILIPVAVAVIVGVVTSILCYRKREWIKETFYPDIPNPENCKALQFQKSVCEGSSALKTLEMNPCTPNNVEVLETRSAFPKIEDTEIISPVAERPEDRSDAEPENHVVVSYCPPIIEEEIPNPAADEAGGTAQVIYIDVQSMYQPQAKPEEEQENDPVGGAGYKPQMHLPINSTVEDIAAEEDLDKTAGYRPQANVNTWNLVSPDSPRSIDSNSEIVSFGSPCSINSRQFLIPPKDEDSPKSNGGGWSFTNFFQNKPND

T2: mouse LIFR-ECD protein (mouse, UniProt P42703 44-828)
T2 construct: extracellular domain
T2 sequence (looked up): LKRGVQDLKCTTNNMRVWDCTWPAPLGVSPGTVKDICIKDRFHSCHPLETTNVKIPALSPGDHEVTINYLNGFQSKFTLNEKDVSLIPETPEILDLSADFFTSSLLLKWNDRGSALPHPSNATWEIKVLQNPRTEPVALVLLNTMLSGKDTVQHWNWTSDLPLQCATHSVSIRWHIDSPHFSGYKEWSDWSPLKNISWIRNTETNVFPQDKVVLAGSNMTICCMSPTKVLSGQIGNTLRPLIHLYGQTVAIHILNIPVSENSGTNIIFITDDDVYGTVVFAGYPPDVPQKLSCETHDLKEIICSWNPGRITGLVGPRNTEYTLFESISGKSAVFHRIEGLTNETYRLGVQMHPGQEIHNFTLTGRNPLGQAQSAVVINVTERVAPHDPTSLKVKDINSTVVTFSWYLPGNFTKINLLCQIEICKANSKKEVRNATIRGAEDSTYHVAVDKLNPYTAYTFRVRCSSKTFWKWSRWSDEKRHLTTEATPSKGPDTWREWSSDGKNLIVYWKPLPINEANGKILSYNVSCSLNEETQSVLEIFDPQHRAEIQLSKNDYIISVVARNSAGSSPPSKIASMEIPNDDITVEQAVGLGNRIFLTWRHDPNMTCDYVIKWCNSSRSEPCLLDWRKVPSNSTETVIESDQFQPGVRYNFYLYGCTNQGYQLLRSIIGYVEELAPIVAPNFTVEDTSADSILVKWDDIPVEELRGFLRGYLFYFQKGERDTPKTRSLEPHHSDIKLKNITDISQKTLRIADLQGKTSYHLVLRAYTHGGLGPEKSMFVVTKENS

B1: PR301211 (antibody, human IgG1, kappa, V domains shown)
VH: QVQLVESGGGVVQPGRSLRLSCAASGFTFSSYGMHWVRQAPGKGLEWVAVIWFDGSLKYYADSVKGRFAISRDNSKNTLYLQMNSLRAEDTAIFYCARGQLVQDLWGRGTLVTVSS
VL: DIQMTQSPSTLSASVGDRVTITCRASQSISSWLAWYQQKPGKAPNLLMYKASNLESGVPSRFSGSGSGTEFTLTITSLQPDDFASYYCQQYKSNPLTFGGGTKVEIKR
B2: PR300516 (antibody, human IgG1, kappa, V domains shown)
VH: QVQLVESGGGVVQPGRSLRLSCAASGFTFSSYGMHWVRQAPGKGLEWVAVIWYDGNNKYYADSVKGRFTISRDNSKNTLYLQMNSLRAEDTAVYYCARDGESSMVRGLLNWFDPWGQGTLVTVSS
VL: not shown
B3: PR301152 (antibody, IgG1, V domains shown)
VH: QVQLVESGGGVVQPGRSLRLSCAASGFTFSSYGMDWVRQAPGKGLEWVAVIWYDGSNKYYADSVKGRFTISRDNSKNTLYLQMNSLRAEDTAVYYCARELWFGELLSPFDFWGQGTLVTVSS
VL: KIVLTQSPGTLSLSPGGRATLSCRASQSISSSYLAWYQQKPGQAPRLLIYAASNRATGIPDRFSGSGSGTDFTLTISRLEPEDFAVYYCQQYGSSPFTFGPGIKVDIKR
B4: PR301168 (antibody, IgG1, V domains shown)
VH: B3 VH with Y59F, K65R, K76Q, F109L
VL: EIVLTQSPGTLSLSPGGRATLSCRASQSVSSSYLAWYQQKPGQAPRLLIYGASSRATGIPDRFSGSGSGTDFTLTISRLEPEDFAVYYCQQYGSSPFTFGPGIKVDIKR
notes: also called PR3001168
B5: PR301153 (antibody, IgG1, V domains shown)
VH: QGQLVESGGGVVQPGRSLRLSCAASGFTFSSYGMHWVRQPPGKGLEWVAVIWFDGSNKYYADSVKGRFTISRDNSKNTVYLQMDSLRDEDTAVYYCARGQLVGDYWGQGTLVTVSS
VL: not shown
B6: PR301177 (antibody, human IgG1, kappa, V domains shown)
VH: QVQLVESGGGVVQPGRSLRLSCVASGFTFSSYGMNWVRQAPGKGLDWVTVIWFDGSNKYYADSVKGRFTISRDNSKNTLYLQMNSLRAEDTAMYYCARGERTLDLWGQGTLVTVSS
VL: DIQMTQSPSTLSASVGDRVTITCRASQSISSWLAWYQQKPGKAPKLLIYKASSLESGVPSRFSGSGSGTEFSFTISSLQPDDFATYYCQQYKSFSPGGLTFGGGTKVEIKR
B7: PR301215 (antibody, human IgG1, kappa, V domains shown)
VH: B1 VH with L57I, A69T, F94Y, L105F
VL: B1 VL
B8: PR301195 (antibody, human IgG1, kappa, V domains shown)
VH: B1 VH with H35N, L57I, A69T, F94Y, L105F
VL: B1 VL
B9: PR301196 (antibody, human IgG1, kappa, V domains shown)
VH: B1 VH with H35N, L57I, A69T, F94Y, L105F
VL: B1 VL with S56N, P59S, S85T
B10: PR301218 (antibody, human IgG1, kappa, V domains shown)
VH: B1 VH with L57V, A69T, F94Y, L105F
VL: B1 VL
B11: PR301176 (antibody, IgG1, V domains shown)
VH: B3 VH with Y59F, K65R, K76Q
VL: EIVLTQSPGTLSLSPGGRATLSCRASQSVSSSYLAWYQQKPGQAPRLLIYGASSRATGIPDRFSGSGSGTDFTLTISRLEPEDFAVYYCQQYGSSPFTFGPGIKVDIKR
B12: PR301127 (antibody, human IgG1, kappa, V domains shown)
VH: EVQLLQSGGGLVQPGGSLRLSCAASGFTFSNYAMTWVRQAPGKGLEWVSTISGSGAFTYYADAVKGRFTISRVNSKNSLDLQMNSLRAEDTAVYYCAKGGILTGFDNWGQGTLVTVSS
VL: B6 VL

Biological target: T1, human LIFR expressed on the surface of …
Assay: flow cytometry on HEK293T-huLIFR cells, median fluorescence, span of the fitted curve

Row | Binder | Span
1 | B1 | 15900
2 | B2 | 19800
3 | B3 | 20100
4 | B4 | 19400

Biological target: T2, mouse LIFR-ECD protein
Assay: ELISA on plate-coated mouse LIFR-ECD (1 ug/mL), anti-human IgG Fc-HRP, OD450nm
Protocol: The binding ability of the 15 antibodies prepared in examples 1-4 of the present invention to the LIFR-ECD protein was detected based on the ELISA assay method. The binding affinity of different antibodies was determined by comparing their dose response binding curves to LIFR-ECD protein. The specific experimental process is as follows: First, human LIFR-ECD, monkey LIFR-ECD and mouse LIFR-ECD proteins are diluted to a concentration of 1 μg/mL, added to a 96-well plate (100 μL per well) and placed at 4° C. overnight. The 96-well plates were washed three times with PBST solution and then placed at 37° C. for 1 h with the addition of 2% BSA in PBS solution. Antibody seris dilution is prepared and (100 nM, 10-fold-dilution), added to a 96-well plate and incubate at 37° C. for 1 h. After washing three times with PBST solution, add anti-human IgG Fc-HRP secondary antibody (for 5000× dilution) and incubate at 37° C. for 30-60 min. After washing three times with PBST solution, add TMB color development solution for 5-15 minutes, and then add termination solution to ternimate the color development.

Row | Binder | binding result
5 | B5 | no binding (tested: 100 nM)
6 | B6 | no binding (tested: 100 nM)
7 | B7 | no binding (tested: 100 nM)
8 | B8 | no binding (tested: 100 nM)
9 | B9 | no binding (tested: 100 nM)
10 | B10 | no binding (tested: 100 nM)
11 | B2 | no binding (tested: 100 nM)
12 | B11 | no binding (tested: 100 nM)
13 | B3 | no binding (tested: 100 nM)
14 | B4 | no binding (tested: 100 nM)

Biological target: T3, human LIFR/gp130 heterodimer expressed on the surface of 293T cells (human, UniProt P42702 45-1097; P40189 23-918)
T3 construct: whole, on cells; also called HEK293T-huLIFR/gp130; huLIFR/gp130
T3 sequence (P40189 23-918, one chain of several): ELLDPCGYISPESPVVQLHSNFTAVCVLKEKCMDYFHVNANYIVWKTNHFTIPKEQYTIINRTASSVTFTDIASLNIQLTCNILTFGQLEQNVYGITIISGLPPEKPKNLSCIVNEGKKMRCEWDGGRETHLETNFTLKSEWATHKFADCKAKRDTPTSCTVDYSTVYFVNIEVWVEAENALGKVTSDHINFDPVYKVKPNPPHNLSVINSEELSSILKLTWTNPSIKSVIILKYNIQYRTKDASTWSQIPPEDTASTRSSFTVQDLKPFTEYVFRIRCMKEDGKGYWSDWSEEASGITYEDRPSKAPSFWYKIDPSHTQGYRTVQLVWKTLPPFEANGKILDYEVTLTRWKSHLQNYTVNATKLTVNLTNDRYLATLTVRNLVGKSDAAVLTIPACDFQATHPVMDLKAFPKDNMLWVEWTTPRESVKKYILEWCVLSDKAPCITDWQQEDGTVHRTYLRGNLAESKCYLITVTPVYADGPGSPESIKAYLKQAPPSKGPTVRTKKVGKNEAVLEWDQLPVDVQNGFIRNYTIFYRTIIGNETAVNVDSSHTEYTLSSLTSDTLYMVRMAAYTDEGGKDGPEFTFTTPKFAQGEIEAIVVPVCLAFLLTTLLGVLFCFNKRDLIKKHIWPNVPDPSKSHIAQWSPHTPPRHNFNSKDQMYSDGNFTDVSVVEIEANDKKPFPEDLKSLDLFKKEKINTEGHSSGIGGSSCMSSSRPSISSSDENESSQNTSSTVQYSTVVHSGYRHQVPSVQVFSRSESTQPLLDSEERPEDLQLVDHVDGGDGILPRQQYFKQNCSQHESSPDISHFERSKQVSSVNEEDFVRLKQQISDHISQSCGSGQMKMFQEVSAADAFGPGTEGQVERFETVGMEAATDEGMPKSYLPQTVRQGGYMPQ
Assay: flow cytometry on HEK293T-huLIFR/gp130 cells, median fluorescence, span of the fitted curve

Row | Binder | Span
15 | B1 | 5800
16 | B2 | 6880
17 | B3 | 7210
18 | B4 | 6950
19 | B12 | 55.6
